This passage reports Km, kcat and kcat/Km results from article PMC8135088.

Substitutions are numbered along the chain they refer to. Names may count otherwise.

First the molecules themselves.
B1: PcPOX (pyranose 2-oxidase from Phanerochaete chrysosporium) (Phanerodontia chrysosporium) (protein)
chain: MFLDTTPFRADEPYDVFIAGSGPIGATFAKLCVDANLRVCMVEIGAADSFTSKPMKGDPNAPRSVQFGPGQVPIPGYHKKNEIEYQKDIDRFVNVIKGALSTCSIPTSNNHIATLDPSVVSNSLDKPFISLGKNPAQNPFVNLGAEAVTRGVGGMSTHWTCATPEFFAPADFNAPHRERPKLSTDAAEDARIWKDLYAQAKEIIGTSTTEFDHSIRHNLVLRKYNDIFQKENVIREFSPLPLACHRLTDPDYVEWHATDRILEELFTDPVKRGRFTLLTNHRCTKLVFKHYRPGEENEVDYALVEDLLPHMQNPGNPASVKKIYARSYVVACGAVATAQVLANSHIPPDDVVIPFPGGEKGSGGGERDATIPTPLMPMLGKYITEQPMTFCQVVLDSSLMEVVRNPPWPGLDWWKEKVARHVEAFPNDPIPIPFRDPEPQVTIKFTEEHPWHVQIHRDAFSYGAVAENMDTRVIVDYRFFGYTEPQEANELVFQQHYRDAYDMPQPTFKFTMSQDDRARARRMMDDMCNIALKIGGYLPGSEPQFMTPGLALHLAGTTRCGLDTQKTVGNTHCKVHNFNNLYVGGNGVIETGFAANPTLTSICYAIRASNDIIAKFGRHRG
B2: PcPOX (pyranose 2-oxidase from Phanerochaete chrysosporium) (Phanerodontia chrysosporium; A551L) (protein)
chain: B1 chain with A551L
B3: PcPOX (pyranose 2-oxidase from Phanerochaete chrysosporium) (Phanerodontia chrysosporium; A551N) (protein)
chain: B1 chain with A551N

Substrate in the first series: OC[C@H]1OC(O)[C@H](O)[C@@H](O)[C@@H]1O
As to the kind of experiment: purified protein. It is filed as biochemical, Phanerodontia chrysosporium. Particulars: 50 mM sodium phosphate pH 7.0, electron acceptor O2.
In general, Km refers to the concentration of substrate that gives half-maximal velocity. For orientation: kcat means the number of substrate molecules converted per active site and unit of time at saturation. The term kcat/Km denotes the second-order rate constant that governs catalysis at low substrate concentration. B1: the Km was 0.978 ± 0.156 mM, the kcat worked out at 115 ± 2 s⁻¹ and the kcat/Km is 120000 M⁻¹ s⁻¹.
The corresponding values for B2 are 3.44 ± 1.15 mM, 0.00659 ± 0.00129 s⁻¹ and 1.9 M⁻¹ s⁻¹.
In the same order, the values of B3 are 12.1 ± 0.3 mM, 0.496 ± 0.021 s⁻¹ and 41 M⁻¹ s⁻¹.

Substrate in another series: OC[C@H]1OC[C@H](O)[C@@H](O)[C@@H]1O
As to the kind of experiment: purified protein. It is filed as biochemical, Phanerodontia chrysosporium. Conditions: 50 mM sodium phosphate pH 7.0, electron acceptor O2.
As for B1, the Km was determined as 18.9 ± 4.4 mM, the turnover number (kcat) was found to be 82.5 ± 10.3 s⁻¹ and the kcat/Km was found to be 4400 M⁻¹ s⁻¹.
Regarding B2, the Michaelis constant (Km) was 26.9 ± 3.5 mM, the kcat is 0.00696 ± 0.00027 s⁻¹ and the kcat/Km is 0.26 M⁻¹ s⁻¹.
In the same order, the values of B3 are 65.7 ± 4.5 mM, 0.253 ± 0.006 s⁻¹ and 3.8 M⁻¹ s⁻¹.
